Data taken from the supplement of paper PMC12042874.
± gives the uncertainty stated by the source.

Experiment: amyloid nucleation score (Sup35N fusion, yeast selection) (log enrichment); library NNK3; higher = more nucleation; inactive = no reads after selection
Summary of the method: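 After 24 hours of induction with 100 μM copper sulfate, psi-negative yeast expressing peptides of 20 random codons fused to Sup35N were grown for 7 days at 30°C on medium lacking adenine and uracil. Input and output plasmid inserts were sequenced with Illumina, and sequences with under 100 input reads were discarded. Scores for nucleation are the DiMSum log enrichment of output over input reads, centred on the mode score of non-aggregating sequences.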
With VFVSSKTISLSGSLMISPNL the amyloid nucleation score was 1.69 ± 0.086. For YEMENDVS, the amyloid nucleation score was “inactive”. In the case of NFLVRTPGRNERG, the amyloid nucleation score is reported as “inactive”. In the case of DVGYSDMLVA, the amyloid nucleation score is reported as “inactive”. In the case of TKDRFFLKHTGRIMLGLRR, the amyloid nucleation score is reported as “inactive”. For FLVNEEPVQLHGAPVRYFKF, the amyloid nucleation score was -0.504 ± 1.1. In the case of SSIDEIGSFV, the amyloid nucleation score is reported as “inactive”. In the case of IRHRTIWSYGSFY, the amyloid nucleation score is reported as “inactive”. LFVKMR showed an amyloid nucleation score of -0.219 ± 0.32. For KRGMSHVSVCFIMRCFLYID, the amyloid nucleation score was “inactive”. In the case of SSYLGECVKRPDPPRISKTL, the amyloid nucleation score is reported as “inactive”. In the case of AKFSGVLKAYAVREATYCLG, the amyloid nucleation score is reported as “inactive”. For YWASARTRSGYFDVNKFSGG, the amyloid nucleation score was “inactive”. With FIMNARGVPLEGWWSDGSDK the amyloid nucleation score was “inactive”. Substance LNTYQHFCIFMLSYALLSGH has an amyloid nucleation score of -1.49 ± 2.5. With HCGWMAFFISLAPQFVYVLI the amyloid nucleation score was “inactive”. With FLFILPDNGPRWCSYTVGNV the amyloid nucleation score was “inactive”. With CWLAAFSFRRSVLSCQGGQG the amyloid nucleation score was “inactive”. With IWKRLYPFTVRQVSCTIMCD the amyloid nucleation score was “inactive”. With YSYNQIWFLLV the amyloid nucleation score was “inactive”. With DVARPCSI the amyloid nucleation score was “inactive”. For VNFILSTAHLL, the amyloid nucleation score was “inactive”. For LSGSRTRSRFPDCLNCIS, the amyloid nucleation score was “inactive”. In the case of GQWDYLLTQYKNIK, the amyloid nucleation score is reported as -1.01 ± 1.1. GNIAELVSGREVYNYVN gave an amyloid nucleation score of -0.075 ± 0.9. In the case of MIRMIMLSRSDRPGVSRKLD, the amyloid nucleation score is reported as “inactive”. In the case of ANGRN, the amyloid nucleation score is reported as “inactive”. Work on PIFFCFNDVWTGNVVLDAMG yielded an amyloid nucleation score of 3.05 ± 0.058. In the case of NRRNLSLFECLSSTGVSRVN, the amyloid nucleation score is reported as “inactive”. In the case of CKFEMSEIDFVYASSIFR, the amyloid nucleation score is reported as “inactive”. With WIFMSYWCVDLMPQLLHECW the amyloid nucleation score was “inactive”. In the case of IFEVFSVNKV, the amyloid nucleation score is reported as “inactive”. For RSYLHCSTK, the amyloid nucleation score was “inactive”. In the case of IRRCPGMKVCWLYLKC, the amyloid nucleation score is reported as “inactive”. KYITHLFFFILSERYCWFPM gave an amyloid nucleation score of -0.341 ± 0.56. In the case of VEDLMF, the amyloid nucleation score is reported as “inactive”. In the case of MRLCAGSCAVFMWNVLVMLG, the amyloid nucleation score is reported as “inactive”. In the case of RLVLRDPTSTVIVRVPLGFV, the amyloid nucleation score is reported as -0.547 ± 1.9. In the case of HSMALITSSRVLVRVLTIMR, the amyloid nucleation score is reported as “inactive”. In the case of RMRYFDVYIWSDMRNEPGGL, the amyloid nucleation score is reported as “inactive”. For MPILLCLVHPPLYSSDPFQK, the amyloid nucleation score was “inactive”. In the case of NIISR, the amyloid nucleation score is reported as -0.184 ± 0.81. With IIFNFFSRVLELLMLGYPYT the amyloid nucleation score was “inactive”. For TYYGCYLVGR, the amyloid nucleation score was 0.01 ± 0.66. For DFYGCGFTFTRSFFRQWFIG, the amyloid nucleation score was 1.09 ± 0.11. In the case of SVLSVV, the amyloid nucleation score is reported as “inactive”. For LWCCEYRNRAATMRVPDPEL, the amyloid nucleation score was “inactive”. With RWVNWLLYDKV the amyloid nucleation score was “inactive”. Substance DKNNLIFFLRAVCYFSSERT has an amyloid nucleation score of 1.08 ± 0.11. For SLRDVVV, the amyloid nucleation score was “inactive”. In the case of VILLSLAY, the amyloid nucleation score is reported as “inactive”. With YFKRCQGNEQFSRNRNANGA the amyloid nucleation score was “inactive”. WLFLLRPRAGSTHPSTHLDF gave an amyloid nucleation score of 0.823 ± 0.1. Substance PRSMNLHLTSSVTSCLKSVW has an amyloid nucleation score of -0.707 ± 0.9. In the case of IVLNKSILYADTCPLFPTMR, the amyloid nucleation score is reported as 0.655 ± 0.11. Work on HSWNKCDVYAWGLCTFISWC yielded an amyloid nucleation score of 0.987 ± 0.096. With TIVYSLT the amyloid nucleation score was “inactive”. With QCYCGLTPTANLDPLMRIWD the amyloid nucleation score was “inactive”. With ASTEKGGPNDGTCWYPYCTA the amyloid nucleation score was “inactive”. With YYLGSADGDPDIKWSLGYRK the amyloid nucleation score was “inactive”. With NLAFP the amyloid nucleation score was “inactive”. Substance IDGWRGELVMTYN has an amyloid nucleation score of 0.025 ± 0.48. For YLRVQDLWWNKFENARHSSI, the amyloid nucleation score was “inactive”. In the case of IGVQATVICYWRIMNRGHKR, the amyloid nucleation score is reported as “inactive”. In the case of IDDQLCQ, the amyloid nucleation score is reported as “inactive”. In the case of LRLVGLLMGNIFFELYGDLC, the amyloid nucleation score is reported as “inactive”. For CRLVAEYGLQVKPMQR, the amyloid nucleation score was “inactive”. With DMYPFPVCR the amyloid nucleation score was “inactive”. For VVVSERVREMRDYNVLLRCT, the amyloid nucleation score was “inactive”. With YAFIL the amyloid nucleation score was “inactive”. For NMPYSCKRLWRDKCQMWEYR, the amyloid nucleation score was “inactive”. Work on NFNYNQQLSVLLLVFGWTWR yielded an amyloid nucleation score of 1.83 ± 0.075. With VYMVTDRGR the amyloid nucleation score was “inactive”. For ALWWKRGVNMRNPSETRLAM, the amyloid nucleation score was “inactive”. With HFVKVE the amyloid nucleation score was “inactive”. For GSMTFNYTLEGLNYHNDTKE, the amyloid nucleation score was “inactive”. In the case of GLNMPLSFSPKRRHFVREWK, the amyloid nucleation score is reported as “inactive”. For CYSLFSLPMKALRSISVRCW, the amyloid nucleation score was 1.52 ± 0.13. TFWVFIAQKRCSGGKYGCMC gave an amyloid nucleation score of -0.097 ± 0.69. With MDAISFQRDMMFNGGFFCAM the amyloid nucleation score was “inactive”. In the case of PDDSRRNPRFG, the amyloid nucleation score is reported as “inactive”. With RPRWFGPRSVVGMRASCTCW the amyloid nucleation score was “inactive”. For PTNTNCLNVLG, the amyloid nucleation score was “inactive”. SIFMCNIVLFKRVVLPRGAS showed an amyloid nucleation score of 0.886 ± 0.18. In the case of EIAVVRKVLYPYCRYVLICS, the amyloid nucleation score is reported as “inactive”. In the case of CTSESVSYNMDRTKCQMYLT, the amyloid nucleation score is reported as “inactive”. With WVSFKDLSELCLGCFRMPRF the amyloid nucleation score was “inactive”. With VRNRWA the amyloid nucleation score was “inactive”. In the case of PVLGSHRIVLSFDKIYLSRD, the amyloid nucleation score is reported as “inactive”. For TSTSAYILGPVTQ, the amyloid nucleation score was “inactive”. For KTLIRASWSLSC, the amyloid nucleation score was “inactive”. For ILYWVYCSYSSNHDLYLFII, the amyloid nucleation score was “inactive”. In the case of DRDMVCMSEL, the amyloid nucleation score is reported as “inactive”. In the case of TSLVKRSALVFYTGTLIYPF, the amyloid nucleation score is reported as “inactive”. With VLKDNF the amyloid nucleation score was “inactive”. In the case of CDIPFF, the amyloid nucleation score is reported as “inactive”. In the case of VFNFPQSDGNRSYMDFMAIQ, the amyloid nucleation score is reported as “inactive”. In the case of YDKWSRSMYVKLCLGAALSW, the amyloid nucleation score is reported as “inactive”. With SSGPIRLERMDYWHHWGATL the amyloid nucleation score was “inactive”. In the case of CRISSPAGVNLLDSSRLSRL, the amyloid nucleation score is reported as “inactive”. For YPFLSIGLYQCRS, the amyloid nucleation score was “inactive”. In the case of GSSGENFVNYSKVTKSDLLY, the amyloid nucleation score is reported as “inactive”. For MSWGGCNAVRKFFECRRRVQ, the amyloid nucleation score was 0.222 ± 0.5. With SPRNMWI the amyloid nucleation score was “inactive”. With PFPRNGLFHLFWYGLCYMAL the amyloid nucleation score was “inactive”. With WIPTPVLCGRPNFYFY the amyloid nucleation score was “inactive”. For RMKFGADIAVVHVCPMEFSG, the amyloid nucleation score was “inactive”. In the case of LTEMVLPLVHHLKTWSFVQE, the amyloid nucleation score is reported as “inactive”. For VRWWWLNF, the amyloid nucleation score was “inactive”. With VNIRLMVKIRFDSVLRILPY the amyloid nucleation score was 0.509 ± 0.31. For WSMLPLKNTIAKQ, the amyloid nucleation score was “inactive”. With YGMYNMTGNMAFKTPARYIF the amyloid nucleation score was “inactive”. CECVGFRSRYM gave an amyloid nucleation score of 0.038 ± 0.3. In the case of VTAFCWGLQRIVGIECSMLE, the amyloid nucleation score is reported as “inactive”. For RVRRLT, the amyloid nucleation score was “inactive”. For TAQTNPGVYYS, the amyloid nucleation score was “inactive”. In the case of IMICILHLC, the amyloid nucleation score is reported as “inactive”. In the case of NKGLNL, the amyloid nucleation score is reported as “inactive”. With VVCLYILHIPCSVRRHTLAD the amyloid nucleation score was “inactive”. VFYLCNFWGCWTCSIAVIVS showed an amyloid nucleation score of 0.576 ± 0.17.
